From publication PMC2188614 (The Journal of Experimental Medicine, 1990)

Molecular target: the molecule itself
Assay: 2-D nonreducing/reducing SDS-PAGE

B1: CD3 zeta (transfected cDNA) (natural protein, murine, UniProt P24161-1 22-164, looked up)
chain: QSFGLLDPKLCYLLDGILFIYGVIITALYLRAKFSRSAETAANLQDPNQLYNELNLGRREEYDVLEKKRARDPEMGGKQQRRRNPQEGVYNALQKDKMAEAYSEIGTKGERRRGKGHDGLYQGLSTATKDTYDALHMQTLAPR
In the case of B1, the “stoichiometry N” value is reported as 2.

B2: CD3 eta (transfected cDNA) (natural protein, murine, UniProt P24161-2 22-206, looked up)
chain: QSFGLLDPKLCYLLDGILFIYGVIITALYLRAKFSRSAETAANLQDPNQLYNELNLGRREEYDVLEKKRARDPEMGGKQQRRRNPQEGVYNALQKDKMAEAYSEIGTKGERRRGKGHDGLYQDSHFQAVQFGNRREREGSELTRTLGLRARPKGESTQQSSQSCASVFSIPTLWSPWPPSSSSQL
With B2 the “stoichiometry N” value was 2.

B3: CD3 zeta (endogenous) (natural protein, murine, UniProt P24161-1 22-164, looked up)
chain: B1 chain
With B3 the “stoichiometry N” value was 2.
